One substance from patent publication US20170319674A1 can be followed below.

The target in the experiment is NY-ESO-1 αβTCR with murinized domain 3 in β-chain, paired with the human TCRα-chain (human). The experiment is described as follows: cell-based or functional assay.

In the case of H57-597 (antibody), the percentage of lysis (standard chromium release assay) stood at 4 fold.
